According to article PMC7585440, “Sclerostin inhibits Wnt signaling through tandem interaction with two LRP6 ectodomains” (Nature Communications, 2020):
Bridges are numbered along the chain shown (N, C = ends). Where no end group is shown, it is not given here.

T1: human LRP6 E1E2 with a C-terminal 10× His tag, labeled with the dye NT-647 (human, UniProt O75581 21-630, dye NT-647 (Monolith NT Protein Labeling kit))
T1 construct: Low-density lipoprotein receptor-related protein 6 (LRP6), human, ectodomains E1 and E2; the limits P21-P630 are printed for the co-expression construct; the MST construct was cloned into another vector (pAcGP67A); also called Labeled LRP6 E1E2; source: High Five insect cells (pAcGP67A), purified (Ni-NTA, HiTrapQ, SEC), no tag cleavage; not shown: His10, C-terminal, kept
T1 sequence (looked up): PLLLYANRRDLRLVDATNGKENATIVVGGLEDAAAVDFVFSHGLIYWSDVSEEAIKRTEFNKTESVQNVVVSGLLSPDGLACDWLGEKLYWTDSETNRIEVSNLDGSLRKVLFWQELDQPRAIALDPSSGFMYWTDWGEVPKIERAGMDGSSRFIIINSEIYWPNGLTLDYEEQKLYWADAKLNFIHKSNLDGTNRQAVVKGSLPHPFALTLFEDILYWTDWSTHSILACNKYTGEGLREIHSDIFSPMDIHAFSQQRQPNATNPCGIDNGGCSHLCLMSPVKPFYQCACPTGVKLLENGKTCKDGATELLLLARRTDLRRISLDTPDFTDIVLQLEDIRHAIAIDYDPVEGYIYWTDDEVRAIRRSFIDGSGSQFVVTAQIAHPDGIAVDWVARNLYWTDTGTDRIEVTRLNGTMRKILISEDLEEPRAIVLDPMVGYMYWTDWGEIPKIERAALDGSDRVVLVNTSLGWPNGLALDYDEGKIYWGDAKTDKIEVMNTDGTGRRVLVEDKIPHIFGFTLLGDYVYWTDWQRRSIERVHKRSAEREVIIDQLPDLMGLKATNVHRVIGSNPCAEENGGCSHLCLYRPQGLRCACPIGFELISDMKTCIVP

T2: human LRP6 E1E2 (P21-P630) with a C-terminal 10x His tag (human, UniProt O75581 21-630, labeled with the dye NT-647 in the MST experiments (legends: Cy-5 dye-labeled))
T2 construct: low-density lipoprotein receptor-related protein 6 (LRP6), human, ectodomains E1 and E2, residues P21-P630; also called LPR6 E1E2; source: High Five insect cells, secreted, purified (Ni-NTA, HiTrapQ, SEC); for the crystal co-expressed with SOSTtr177
T2 sequence (looked up): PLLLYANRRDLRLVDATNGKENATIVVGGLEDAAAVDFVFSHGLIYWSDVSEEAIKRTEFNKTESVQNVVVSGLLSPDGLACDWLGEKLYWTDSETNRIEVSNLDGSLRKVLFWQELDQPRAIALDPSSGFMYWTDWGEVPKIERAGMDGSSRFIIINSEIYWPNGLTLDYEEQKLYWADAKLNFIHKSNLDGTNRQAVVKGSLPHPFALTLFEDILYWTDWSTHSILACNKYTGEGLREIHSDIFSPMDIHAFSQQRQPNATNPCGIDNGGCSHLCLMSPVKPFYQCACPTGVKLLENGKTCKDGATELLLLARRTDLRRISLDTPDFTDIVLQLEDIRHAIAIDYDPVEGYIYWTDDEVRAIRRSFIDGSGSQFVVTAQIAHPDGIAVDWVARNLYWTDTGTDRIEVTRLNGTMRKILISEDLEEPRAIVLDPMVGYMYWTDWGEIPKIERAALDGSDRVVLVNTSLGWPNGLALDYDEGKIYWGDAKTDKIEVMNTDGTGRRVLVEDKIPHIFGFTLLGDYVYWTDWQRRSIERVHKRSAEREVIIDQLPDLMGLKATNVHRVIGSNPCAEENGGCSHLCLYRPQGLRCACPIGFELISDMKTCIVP

T3: human LRP6 E1 (P21-D325) with a C-terminal His tag (human, UniProt O75581 21-325, labeled with the dye NT-647 in the MST experiments (legends: Cy-5 dye-labeled))
T3 construct: low-density lipoprotein receptor-related protein 6 (LRP6), human, ectodomain E1, residues P21-D325; The methods name a 10x His tag; also called LPR6 E1; source: High Five insect cells, secreted, purified (Ni-NTA, HiTrapQ, SEC)
T3 sequence (looked up): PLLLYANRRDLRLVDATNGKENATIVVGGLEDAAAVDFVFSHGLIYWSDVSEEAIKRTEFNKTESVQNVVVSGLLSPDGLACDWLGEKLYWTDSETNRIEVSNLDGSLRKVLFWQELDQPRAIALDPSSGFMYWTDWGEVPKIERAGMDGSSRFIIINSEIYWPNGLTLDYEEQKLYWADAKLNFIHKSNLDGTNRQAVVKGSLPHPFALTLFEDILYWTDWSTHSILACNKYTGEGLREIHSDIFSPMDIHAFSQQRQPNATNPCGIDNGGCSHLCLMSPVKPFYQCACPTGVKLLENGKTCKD

T4: human LRP6 E1 with a C-terminal 10× His tag, labeled with the dye NT-647 (human, dye NT-647 (Monolith NT Protein Labeling kit))
T4 chain: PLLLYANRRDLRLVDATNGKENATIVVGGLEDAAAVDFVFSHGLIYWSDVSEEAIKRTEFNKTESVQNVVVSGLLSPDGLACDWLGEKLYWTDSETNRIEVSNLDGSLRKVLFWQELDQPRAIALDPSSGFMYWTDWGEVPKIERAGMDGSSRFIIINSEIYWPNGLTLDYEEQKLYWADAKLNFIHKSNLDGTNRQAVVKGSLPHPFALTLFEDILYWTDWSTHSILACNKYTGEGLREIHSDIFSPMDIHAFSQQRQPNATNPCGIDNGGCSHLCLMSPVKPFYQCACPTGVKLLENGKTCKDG


How the values were obtained:
Conditions in all cases: both partners purified
[1] = target: T1, human LRP6 E1E2 with a C-terminal 10× …; test: MST; LRP6 E1E2 or E1 labeled with NT-647 at ~5 nM, unlabeled SOST proteins or peptides titrated; 20 mM Tris-Cl pH 7.0, 200 mM NaCl, 0.5 mg/ml BSA, 0.05% Tween 20; 22 °C; Monolith NT.115 Pico
[2] = target: T2, human LRP6 E1E2 (P21-P630) with a …; test: MST; labeled LRP6 E1E2 or LRP6 E1 (~5 nM) titrated with unlabeled Smo-SOST, MBP-SOST, tags or peptides; 20 mM Tris-Cl pH 7.0, 200 mM NaCl, 0.5 mg/ml BSA, 0.05% Tween 20; 22 °C; three independent experiments
[3] = target: T3, human LRP6 E1 (P21-D325) with a …; test: as above
[4] = target: T4, human LRP6 E1 with a C-terminal 10× His …; test: MST; LRP6 E1E2 or E1 labeled with NT-647 at ~5 nM, unlabeled SOST proteins or peptides titrated; 20 mM Tris-Cl pH 7.0, 200 mM NaCl, 0.5 mg/ml BSA, 0.05% Tween 20; 22 °C; Monolith NT.115 Pico

Kd [1] [nM] | Kd [2] [nM] | Binder | other results
5800 |  | human SOST C-terminal tail peptide (residues 170–213) (peptide) not shown | 
 | 290 | human SOSTtr204 (Q24-A204) with an N-terminal His6-SUMO tag (domain or fragment, sclerostin (SOST), human, residues Q24-A204; also called Smo-SOSTtr204; source: High Five insect cells, secreted, purified; tag not cleaved; not shown: His6, N-terminal, kept; SUMO, N-terminal, kept) QGWQAFKNDATEIIPELGEYPEPPPELENNKTMNRAENGGRPPHHPFETKDVSEYSCRELHFTRYVTDGPCRSAKPVTELVCSGQCGPARLLPNAIGRGKWWRPSGPDFRCIPDRYRAQRVQLLCPGGEAPRARKVRLVASCKCKRLTRFHNQSELKDFGTEAARPQKGRKPRPRARSAKA | 
5500 |  | CLLPNAIGRGKWGC (disulfide 1-14 (inferred), first cysteine of the printed peptide, for the ring-closing disulfide; last two residues of the printed peptide, with the second cysteine of the disulfide; source: synthetic peptide (Peptron)) [disulfide-bonded, circularized SOST loop 2 peptide (CLLPNAIGRGKWGC)] | Kd [4]: 5200 nM

Second part, the binder before the results:

Binder | Kd [1] [nM] | Kd [2] [nM] | other results
SOST_(tr169) with an N-terminal His6-SUMO tag (domain or fragment, human, UniProt Q9BQB4 24-169, looked up, has neither the HNQS region nor the basic-residue cluster; also called Smo-SOST mutant tr169; source: High Five insect cells (pAcGP67A), purified (Ni-NTA, HiTrapQ, SEC), no tag cleavage; not shown: His6, N-terminal, kept; SUMO, N-terminal, kept) QGWQAFKNDATEIIPELGEYPEPPPELENNKTMNRAENGGRPPHHPFETKDVSEYSCRELHFTRYVTDGPCRSAKPVTELVCSGQCGPARLLPNAIGRGKWWRPSGPDFRCIPDRYRAQRVQLLCPGGEAPRARKVRLVASCKCKR | 900 |  | 
human SOSTtr187 (Q24-A187) with an N-terminal His6-SUMO tag (domain or fragment, sclerostin (SOST), human, residues Q24-A187; also called Smo-SOSTtr187; source: High Five insect cells, secreted, purified; tag not cleaved; not shown: His6, N-terminal, kept; SUMO, N-terminal, kept) QGWQAFKNDATEIIPELGEYPEPPPELENNKTMNRAENGGRPPHHPFETKDVSEYSCRELHFTRYVTDGPCRSAKPVTELVCSGQCGPARLLPNAIGRGKWWRPSGPDFRCIPDRYRAQRVQLLCPGGEAPRARKVRLVASCKCKRLTRFHNQSELKDFGTEAA |  | 600 | 
human WT SOST (Q24-Y213) with an N-terminal His6-SUMO tag (natural protein, sclerostin (SOST), human, residues Q24-Y213; also called Smo-SOST; Smo-SOST WT; source: High Five insect cells, secreted, purified; tag not cleaved; not shown: His6, N-terminal, kept; SUMO, N-terminal, kept) QGWQAFKNDATEIIPELGEYPEPPPELENNKTMNRAENGGRPPHHPFETKDVSEYSCRELHFTRYVTDGPCRSAKPVTELVCSGQCGPARLLPNAIGRGKWWRPSGPDFRCIPDRYRAQRVQLLCPGGEAPRARKVRLVASCKCKRLTRFHNQSELKDFGTEAARPQKGRKPRPRARSAKANQAELENAY |  |  | Kd [3]: 780 nM
human WT SOST (Q24-Y213) with an N-terminal His6-MBP tag (natural protein, sclerostin (SOST), human, residues Q24-Y213; also called MBP-SOST; MBP-SOST WT; source: High Five insect cells, secreted, purified; tag not cleaved; not shown: His6, N-terminal, kept; MBP, N-terminal, kept) QGWQAFKNDATEIIPELGEYPEPPPELENNKTMNRAENGGRPPHHPFETKDVSEYSCRELHFTRYVTDGPCRSAKPVTELVCSGQCGPARLLPNAIGRGKWWRPSGPDFRCIPDRYRAQRVQLLCPGGEAPRARKVRLVASCKCKRLTRFHNQSELKDFGTEAARPQKGRKPRPRARSAKANQAELENAY |  | 170 | 
